Measured values as given in doi:10.1101/2021.12.19.473342.

Molecular target: BrxR from Escherichia fergusonii ATCC 35469 plasmid pEFER (Escherichia fergusonii ATCC 35469)
Test: SEC

- stoichiometry N: 2
Substance: BrxR from Escherichia fergusonii ATCC 35469 plasmid pEFER (natural protein)
